The values below come from patent US9012186B2, “Hemicellulose-degrading enzymes” (The Board of Trustees of the University of Illinois, priority 2009, dated 2015).

Residue numbers refer to the chain shown, from its start. Names and notes keep the numbering of the source.

Common to all, as to type: biochemical, Prevotella bryantii
Substrate in data set [1]: O=[N+]([O-])c1ccc(O[C@@H]2O[C@H](CO)[C@@H](O)[C@H](O)[C@H]2O)cc1
Kind of data set: Steady state kinetics of pNP substrate hydrolysis, Pb911 WT. Conditions: other: Pb911 WT, pNP assay per Example 2 (sodium citrate, pH 5.5, 37° C.). As for the experimental part:
(§1) Enzyme-catalyzed hydrolysis of para-nitrophenyl (pNP)-linked monosaccharide substrates was assayed using a thermostated Synergy II multi-mode microplate reader from BioTek Instruments Inc. (Winooski, Vt.). A library of pNP substrates were screened for activity including: pNP-α-L-arabinopyranoside, pNP-α-L-arabinofuranoside, pNP-β-D-fucopyranoside, pNP-α-L-fucopyranoside, pNP-α-D-galactopyranoside, pNP-β-D-galactopyranoside, pNP-α-D-glucopyranoside, pNP-β-D-glucopyranoside, pNP-β-D-maltopyranoside, pNP-α-D-maltopyranoside, pNP-α-D-mannopyranoside, pNP-β-D-mannopyranoside, pNP-α-L-rhamnopyranoside, pNP-β-D-xylopyranoside, pNP-β-D-cellobioside. The substrates (1 mM) in citrate buffer (100 μL; 50 mM sodium citrate, 150 mM NaCl, pH 5.5) were incubated at 37° C. in the presence or absence of Pb886 (0.2 μM) for 30 min, and the level of pNP release was determined by continuously monitoring the absorbance at 400 nm. The pathlength correction feature of the instrument was employed to convert the absorbance values recorded to correspond to a 1 cm pathlength. The extinction coefficient for pNP at pH 5.5 and a wavelength of 400 nm was measured as 0.673 mM^−1cm^−1.
(§2) FIG. 4c illustrates the kinetics of pNP substrate hydrolysis. The activity of Pb886 was verified with para-nitrophenyl derivatives of xylose and arabinose as indicated in the x-axes. These substrates are artificial substrates for the enzyme. Kinetic studies of Pb886 were performed using a thermostated Synergy II multi-mode microplate reader from BioTek Instruments Inc. (Winooski, Vt.). pNP-β-D-Xylopyranoside (0-46.25 mM) or pNP-α-L-arabinofuranoside (0-25 mM) were incubated in a citrate reaction buffer (100 μL; 50 mM sodium citrate, 150 mM NaCl, pH 5.5) at 37° C. in a 96-well flat bottom microtiter plate, and reactions were initiated by the addition of Pb886 (0.2 μM). Hydrolysis of pNP-β-D-xylopyranoside and pNP-α-L-arabinofuranoside were continuously monitored by recording the UV signal at 400 nm. Initial rate data were then plotted against the substrate concentration, and kinetic values were estimated by applying a nonlinear curve fit using GraphPad Prism v5.02 from GraphPad Software (San Diego, Calif.). The extinction coefficient for para-nitrophenol at pH 5.5 and a wavelength of 400 nm was measured as 0.673 mM^−1cm^−1.
(§3) Pb911 protein was expressed and purified according to the methods described in Example 1. […] The activity of Pb911 on pNP substrates was measured according to the methods described in Example 2.

Substrate in data set [2]: O=[N+]([O-])c1ccc(O[C@@H]2OC[C@@H](O)[C@H](O)[C@H]2O)cc1
The data set is described as above. Conditions: other: Pb911 WT, pNP assay per Example 2 (sodium citrate, pH 5.5, 37° C.). As for the experimental part: as §1, §2, §3

Substrate in data set [3]: O=[N+]([O-])c1ccc(O[C@@H]2O[C@H](CO)[C@@H](O)[C@H](O)[C@H]2O)cc1
Kind of data set: Steady state kinetics of pNP substrate hydrolysis, Pb911 E115A. To be noted: other: Pb911 E115A, pNP assay per Example 2 (sodium citrate, pH 5.5, 37° C.). The method, then:
as §1, §2, §3

Substrate in data set [4]: O=[N+]([O-])c1ccc(O[C@@H]2OC[C@@H](O)[C@H](O)[C@H]2O)cc1
The description is as above. To be noted: other: Pb911 E115A, pNP assay per Example 2 (sodium citrate, pH 5.5, 37° C.). The method, then:
as §1, §2, §3

Substrate in data set [5]: O=[N+]([O-])c1ccc(O[C@@H]2O[C@H](CO)[C@@H](O)[C@H](O)[C@H]2O)cc1
Kind of data set: Steady state kinetics of pNP substrate hydrolysis, Pb911 E115D. Conditions: other: Pb911 E115D, pNP assay per Example 2 (sodium citrate, pH 5.5, 37° C.). As for the experimental part:
as §1, §2, §3

Substrate in data set [6]: O=[N+]([O-])c1ccc(O[C@@H]2OC[C@@H](O)[C@H](O)[C@H]2O)cc1
Described as above. To be noted: other: Pb911 E115D, pNP assay per Example 2 (sodium citrate, pH 5.5, 37° C.). The method, then: as §1, §2, §3

B1: Prevotella bryantii β-xylosidase/β-glucosidase Pb911 (alternatively named Pb2369), wild type, SEQ ID NO: 6 (Segatella baroniae B14) (protein)
chain: QTILINQQVDALYDRMSQEERINQLRSGYMDDLFDEQGNLDTVKCKELIPFGIGHFSQYASQKPLDANILRDRVAAVQDWLIHHTPNGIPALFHEEVLSGVNTKDATIYPQQIGQACSFNPELAERKTLQTGIDMRKMGGVLSLSPMVDVCRNPSFNRLEESYGEDGYLSAVMGTAFVKGLQQGDLTKGVGACSKHYLGYGGGGDAKEKEMMEEILLPHETMIRLAGSKALMPGYHAVHGTNCVANHEILTDILRGYLGFDGMVVSDYTAIDQIPGLDTPLQKATAAINAGNDVDFPHGANYKFLQEGLDKGMVKSEAFERAVKDVLRHKYRQGLFDKNAYLYSKDPIQLDSKEERQTAYDIATQSVVLLENKGILPLRGKQNIFVTGPNANTMWAMCGDYSFPAMTYFWKKVTEDLDHPHIVKLLEGMKDRKPAGINISYSRGCDWTDTIETKYAVSGDERAWEYEVLHRKVDSGEKADETEALAMAKEADVIIAAVGENVMLCGENRDRQGLCLPGHQEQYVERLLATGKPVVLVVFGGRAQVISNIANRCAAVIQAWYPGEEGGHAVADILYGNVSPSAKLSVSYPNVELNEPICYNYSAKQDSRVAWPFGYGLSYTTFDYSNLEVPTEVKTSDESLHIAFEVANTGKMDADEIAQVYLSPTQENQNIRPIQLQGFARISLKAGERKKVKVKLYTEQFGYYSNNGKRQWNIAPGTFTVKIGASSQDIKLQKNITVKGDIVVKPLRDFYFSEVIK
In general, Km refers to the concentration of substrate that gives half-maximal velocity. As a reminder, the kcat is the maximal rate divided by the concentration of active sites. For orientation: kcat/Km means the turnover number divided by the Michaelis constant. Regarding B1, in data set [1], the Michaelis constant (Km) was found to be 22 ± 1 mM, the turnover number (kcat) is 19 ± 0.6 s⁻¹ and the specificity constant (kcat/Km) was found to be 860 ± 50 M⁻¹ s⁻¹. In data set [2], the Michaelis constant (Km) is given as 8.4 ± 1 mM, the kcat stood at 250 ± 10 s⁻¹ and the kcat/Km worked out at 30000 ± 4000 M⁻¹ s⁻¹.

B2: Prevotella bryantii β-xylosidase/β-glucosidase Pb911 (alternatively named Pb2369, wild type SEQ ID NO: 6) variant E115A (Segatella baroniae B14; E115A) (protein)
chain: B1 chain with E96A
As to B2, in data set [3], the Michaelis-Menten constant (Km) was 39 ± 4 mM, the kcat was determined as 0.087 ± 0.005 s⁻¹ and the kcat/Km is 2.2 ± 0.3 M⁻¹ s⁻¹. In data set [4], the Km was found to be 28 ± 3 mM, the catalytic constant (kcat) is 0.35 ± 0.02 s⁻¹ and the catalytic efficiency (kcat/Km) turned out to be 13 ± 2 M⁻¹ s⁻¹.

B3: Prevotella bryantii β-xylosidase/β-glucosidase Pb911 (alternatively named Pb2369, wild type SEQ ID NO: 6) variant E115D (Segatella baroniae B14; E115D) (protein)
chain: B1 chain with E96D
Consider B3, for which, in data set [5], the Km was 17 ± 1 mM, the kcat came to 16 ± 0.4 s⁻¹ and the catalytic efficiency (kcat/Km) was determined as 940 ± 60 M⁻¹ s⁻¹. Besides, in data set [6], the Michaelis constant (Km) came to 39 ± 4 mM, the kcat turned out to be 87 ± 5 s⁻¹ and the specificity constant (kcat/Km) was determined as 2200 ± 200 M⁻¹ s⁻¹.
